Assay results from publication PMC4770092, “Subnanometre enzyme mechanics probed by single-molecule force spectroscopy” (Nature Communications, 2016).

What was measured:
Assay in all cases: coupled spectrophotometric assay
Assay type in all cases: biochemical, Aquifex aeolicus
[1] = substrate: Nc1ncnc2c1ncn2[C@@H]1O[C@H](COP(=O)(O)O)[C@@H](O)[C@H]1O
[2] = substrate: Nc1ncnc2c1ncn2[C@@H]1O[C@H](COP(=O)(O)OP(=O)(O)O)[C@@H](O)[C@H]1O; conditions: Mg-ADP/ADP
[3] = substrate: Nc1ncnc2c1ncn2[C@@H]1O[C@H](COP(=O)(O)OP(=O)(O)OP(=O)(O)O)[C@@H](O)[C@H]1O

B1: AdK 42-144 (Aquifex aeolicus VF5; INS144C/INS42C) (protein)
chain: MILVFLGPPGAGKGTQAKRLAKEKGFVHISTGDILREAVQKGCTPLGKKAKEYMERGELVPDDLIIALIEEVFPKHGNVIFDGFPRTVKQAEALDEMLEKKGLKVDHVLLFEVPDEVVIERLSGRRINPETGEVYHVKYNPPPPGCVKVIQREDDKPEVIKKRLEVYREQTAPLIEYYKKKGILRIIDASKPVEEVYRQVLEVIGDGN
notes: full length, Cys inserted between 42/43 and 144/145; N-terminal spacer …, C-terminal spacer and His6 kept; synthetic gene in pET11a, E. coli BL21(DE3); DNA handles on Cys in trap assay
Question: What does the source list for B1?
Answer: Km [1]: 10 µM; Km [2]: 360 ± 80 µM; Km [3]: 41 ± 11 µM
